The text below walks through data of article PMC9544093.

Experiment [1] has as its target Bovine γ-globulin (Sigma-Aldrich G5009), a polyvalent antibody mixture of ~80 % IgG, ~10 % IgM and <10 % IgA (bovine). The experiment is described as follows: fluorescence polarisation; steady-state fluorescence anisotropy; 0.43 uM dansyl-labelled γ-globulin titrated with 0-250 uM unlabelled γ-globulin; 0.5 M TMAO; 20 °C; pressure not named for this value (ambient implied); fitted to a 1:1 (monomer to dimer) model. In general terms: Fluorescence polarisation rises when a labelled molecule tumbles more slowly, as on binding a larger partner.

For experiment [2] the target is unchanged. In words: fluorescence polarisation; steady-state fluorescence anisotropy; 0.43 uM dansyl-labelled γ-globulin titrated with 0-250 uM unlabelled γ-globulin; neat buffer; 20 °C; pressure not named for this value (ambient implied); fitted to a 1:1 (monomer to dimer) model.
For experiment [3] the target is unchanged. In words: fluorescence polarisation; steady-state fluorescence anisotropy in a high-pressure cell; 0.43 uM dansyl-labelled γ-globulin titrated with 0-250 uM unlabelled γ-globulin; 0.5 M TMAO; 20 °C; p = 500 bar; fitted to a 1:1 (monomer to dimer) model.
Experiment [4] has the same target. The experiment is described as follows: fluorescence polarisation; steady-state fluorescence anisotropy in a high-pressure cell; 0.43 uM dansyl-labelled γ-globulin titrated with 0-250 uM unlabelled γ-globulin; neat buffer; 20 °C; p = 500 bar; fitted to a 1:1 (monomer to dimer) model.

For “Bovine γ-globulin (Sigma-Aldrich G5009), a polyvalent antibody mixture of ~80 % IgG, ~10 % IgM and <10 % IgA”, the Ka was 592 M⁻¹ in experiment [1], 882 M⁻¹ in experiment [2], 997 M⁻¹ in experiment [3] and 1530 M⁻¹ in experiment [4].
